Laboratory results as given in the supplement of paper PMC11246515.
± gives the standard deviation of the averaged measurements.

Assay: total protein half-life in vivo (active degradation + dilution); higher = more stable protein
[1] = E. coli NCM3722 delta-clpP delta-lon delta-hslV, growth: N-lim chemostat, doubling time 6 h
[2] = E. coli NCM3722 delta-clpP, growth: N-lim chemostat, doubling time 6 h
[3] = E. coli NCM3722 delta-hslV, growth: N-lim chemostat, doubling time 6 h
[4] = E. coli NCM3722 delta-lon, growth: N-lim chemostat, doubling time 6 h
[5] = E. coli NCM3722 delta-smpB, growth: N-lim chemostat, doubling time 6 h
[6] = wild type E. coli NCM3722, growth: C-lim chemostat, doubling time 3 h
[7] = wild type E. coli NCM3722, growth: C-lim chemostat, doubling time 6 h
[8] = wild type E. coli NCM3722, growth: C-lim chemostat, doubling time 12 h
[9] = wild type E. coli NCM3722, growth: N-lim chemostat, doubling time 6 h
[10] = wild type E. coli NCM3722, growth: N-lim chemostat, doubling time 12 h
[11] = wild type E. coli NCM3722, growth: P-lim chemostat, doubling time 6 h
[12] = wild type E. coli NCM3722, growth: P-lim chemostat, doubling time 12 h

Sequence	total protein half-life in vivo [1] [h]	total protein half-life in vivo [2] [h]	total protein half-life in vivo [3] [h]	total protein half-life in vivo [4] [h]	total protein half-life in vivo [5] [h]	total protein half-life in vivo [6] [h]	total protein half-life in vivo [7] [h]	total protein half-life in vivo [8] [h]	total protein half-life in vivo [9] [h]	total protein half-life in vivo [10] [h]	total protein half-life in vivo [11] [h]	total protein half-life in vivo [12] [h]
MLNYVIKRLLGLIPTLFIVSVLVFLFVHMLPGDPARLIAGPEADAQVIELVRQQLGLDQPLYHQFWHYISNAVQGDFGLSMVSRRPVADEIASRFMPTLWLTITSMVWAVIFGMAAGIIAAVWRNRWPDRLSMTIAVSGISFPAFALGMLLIQVFSVELGWLPTVGADSWQHYILPSLTLGAAVAAVMARFTRASFVDVLSEDYMRTARAKGVSETWVVLKHGLRNAMIPVVTMMGLQFGFLLGGSIVVEKVFNWPGLGRLLVDSVEMRDYPVIQAEILLFSLEFILINLVVDVLYAAINPAIRYK	6.23 ± 0.21	5.94 ± 1	6.89 ± 0.77	6.12 ± 1.5	5.48 ± 0.069	3.13 ± 0.44	6.58 ± 0.59	11.4 ± 1.1	5.84 ± 0.41	11.1 ± 0.85	5.68	12.6 ± 1.1
MLPPYFLFKEMTDTQYIGRFAPSPSGELHFGSLIAALGSYLQARARQGRWLVRIEDIDPPREVPGAAETILRQLEHYGLHWDGDVLWQSQRHDAYREALAWLHEQGLSYYCTCTRARIQSIGGIYDGHCRVLHHGPDNAAVRIRQQHPVTQFTDQLRGIIHADEKLAREDFIIHRRDGLFAYNLAVVVDDHFQGVTEIVRGADLIEPTVRQISLYQLFGWKVPDYIHLPLALNPQGAKLSKQNHAPALPKGDPRPVLIAALQFLGQQAEAHWQDFSVEQILQSAVKNWRLTAVPESAIVNSTFSNASC	–	3.9	–	5.27	3.67 ± 0.12	3.26 ± 0.7	5.73	3.64	3.84	–	4.7	9.87 ± 0.39
MLPSISINNTSAAYPESINENNNDEVNGLVQEFKNLFNGKEGISTCIKHLLELIKNAIRVNDDPYRFNINNSSVTYIDIDSNDTDHITIGIDNQEPIELPANYKDKELVRTIINDNIVEKTHDINNKEMIFSALKEIYDGDPGFIFDKISHKLRHTVTEFDESGKSEPTDLFTWYGKDKKGDSLAIVIKNKNGNDYLSLGYYDQDDYHIQRGIRINGDSLTQYCSENARSASAWFESSKAIMAESFATGSDHQVVNELNGERLREPNDVFKRYGRAIRYDFQVDDAKYKCDHLKEIVSTLVGNKINVGHSQKIYKHFKDLEGKIEERLQNRQAEYQNEINQPSAPGVNFDDI	–	–	–	–	–	–	–	–	5.3	–	–	–
MLQHYSVSWKKGLAALCLLAVAGLSGCDQQENAAAKVEYDGLSNSQPLRVDANNHTVTMLVQINGRFLTDDTRHGIVFKDGSNGHKSLFMGYATPKAFYEALKEAGGTPGENMTMDNKETTHVTGSKLDISVNWQGAAKAYSFDEVIVDSNGKKLDMRFGGNLTAAEEKKTGCLVCLDSCPVGIVSNATYTYGAVEKRGEVKFKGNASVLPADNTLATVTFKIAE	5.59 ± 0.95	6.08 ± 0.12	6.34 ± 0.64	6.31 ± 0.53	6.66 ± 0.39	2.87 ± 0.32	6.91 ± 0.16	–	6.55 ± 0.35	12.4 ± 0.69	4.96 ± 0.71	14.84 ± 0.069
MLQIIRGKLVIFLITLCLFVVYLGFDNNSNSDIVFYGHKTPKSVEIYLSEKNIIYKIINDQKISRGNGHFISIMVNNYRTHCGVVDINLNFFNDILYSVRLKNISKLENMEFCATKQRVYFSDKNKKASYKIINYGDYYDVDYYDNNLKNEVFDWIGKWS	–	–	–	–	–	2.67	4.29	–	–	–	2.67	7
MLQLLLAVFIGGGTGSVARWLLSMRFNPLHQAIPLGTLTANLIGAFIIGIGFAWFSRMTNIDPVWKVLITTGFCGGLTTFSTFSAEVVFLLQEGRFGWALLNVFVNLLGSFAMTALAFWLFSASTAH	–	–	5.83	–	–	–	–	–	–	–	–	–
MLQNCAQSNCRIIPKKLRDMKREEICRLLADKVNKLKNKENSLSGLLPDVRLLYGETPFARTPVMYEPGIIILFSGHKIGYINERVFRYDANEYLLLTVPLPFECETYATSEVPLAGLRLNVDILQLQELLMDIGEDEHFQPSMAASGINSATLSEEILCAAERLLDVMERPLDARILGKQIIREILYYVLTGPCGGALLALVSRQTHFSLISRVLKRIENKYTENLSVEQLAAEANMSVSAFHHNFKSVTSTSPLQYLKNYRLHKARMMIIHDGMKASAAAMRVGYESASQFSREFKRYFGVTPGEDAARMRAMQGN	5 ± 0.43	3.07 ± 0.072	2.48 ± 0.13	4.33 ± 0.18	2.432 ± 0.0042	2.08 ± 0.1	3.87 ± 0.56	4.94	2.98	3.71 ± 0.24	2.74	4.35 ± 0.82
MLQNPIHLRLERLESWQHVTFMACLCERMYPNYAMFCQQTGFGDGQIYRRILDLIWETLTVKDAKVNFDSQLEKFEEAIPSADDFDLYGVYPAIDACVALSELVHSRLSGETLEHAVEVSKTSITTVAMLEMTQAGREMSDEELKENPAVEQEWDIQWEIFRLLAECEERDIELIKGLRADLREAGESNIGIIFQQ	5.09 ± 0.47	5.16 ± 0.66	4.79 ± 0.12	5.23 ± 0.55	4.12 ± 1.1	3.1 ± 0.088	5.93 ± 0.21	–	4.84 ± 0.12	8.11 ± 0.86	6.28 ± 0.52	13.7 ± 1.8
MLRIIDTETCGLQGGIVEIASVDVIDGKIVNPMSHLVRPDRPISPQAMAIHRITEAMVADKPWIEDVIPHYYGSEWYVAHNASFDRRVLPEMPGEWICTMKLARRLWPGIKYSNMALYKTRKLNVQTPPGLHHHRALYDCYITAALLIDIMNTSGWTAEQMADITGRPSLMTTFTFGKYRGKAVSDVAERDPGYLRWLFNNLDSMSPELRLTLKHYLENT [P0AEK0]	5.44 ± 2	1.56 ± 0.12	1.2033 ± 0.0011	2.29 ± 0.6	0.987 ± 0.0014	1.24 ± 0.16	2 ± 0.16	2.32	1.37 ± 0.12	2.04 ± 0.23	1.52 ± 0.42	3.43
